Residue numbers refer to the chain shown, from its start. Names may count otherwise.
T1: human prolactin receptor (PRLR) on cells (human, UniProt P16471 25-622)
T1 construct: T47D, T47D#11 and MCF7 carry the endogenous receptor; also called hPRLR; HEK293/hPRLR
T1 sequence: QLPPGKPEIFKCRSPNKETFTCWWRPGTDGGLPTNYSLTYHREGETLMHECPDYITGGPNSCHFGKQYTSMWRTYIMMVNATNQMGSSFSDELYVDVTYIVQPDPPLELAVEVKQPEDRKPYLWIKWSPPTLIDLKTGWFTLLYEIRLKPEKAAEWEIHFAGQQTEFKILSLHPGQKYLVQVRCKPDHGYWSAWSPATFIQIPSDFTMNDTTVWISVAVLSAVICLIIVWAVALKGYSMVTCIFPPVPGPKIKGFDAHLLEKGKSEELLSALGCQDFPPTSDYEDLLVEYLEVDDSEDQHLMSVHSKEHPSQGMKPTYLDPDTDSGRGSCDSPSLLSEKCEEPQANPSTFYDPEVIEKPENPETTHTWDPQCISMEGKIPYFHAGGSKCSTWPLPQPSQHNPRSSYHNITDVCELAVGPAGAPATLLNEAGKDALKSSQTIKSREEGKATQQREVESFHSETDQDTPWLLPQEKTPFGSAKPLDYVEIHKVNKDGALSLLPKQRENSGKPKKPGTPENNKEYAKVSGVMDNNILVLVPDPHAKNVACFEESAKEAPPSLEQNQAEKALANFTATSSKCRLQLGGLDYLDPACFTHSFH

T2: monkey (macaca fascicularis) PRLR on HEK293 cells (macaca fascicularis, UniProt A0A2K5WXK1 25-619)
T2 construct: also called mfPRLR; HEK293/mfPRLR
T2 sequence: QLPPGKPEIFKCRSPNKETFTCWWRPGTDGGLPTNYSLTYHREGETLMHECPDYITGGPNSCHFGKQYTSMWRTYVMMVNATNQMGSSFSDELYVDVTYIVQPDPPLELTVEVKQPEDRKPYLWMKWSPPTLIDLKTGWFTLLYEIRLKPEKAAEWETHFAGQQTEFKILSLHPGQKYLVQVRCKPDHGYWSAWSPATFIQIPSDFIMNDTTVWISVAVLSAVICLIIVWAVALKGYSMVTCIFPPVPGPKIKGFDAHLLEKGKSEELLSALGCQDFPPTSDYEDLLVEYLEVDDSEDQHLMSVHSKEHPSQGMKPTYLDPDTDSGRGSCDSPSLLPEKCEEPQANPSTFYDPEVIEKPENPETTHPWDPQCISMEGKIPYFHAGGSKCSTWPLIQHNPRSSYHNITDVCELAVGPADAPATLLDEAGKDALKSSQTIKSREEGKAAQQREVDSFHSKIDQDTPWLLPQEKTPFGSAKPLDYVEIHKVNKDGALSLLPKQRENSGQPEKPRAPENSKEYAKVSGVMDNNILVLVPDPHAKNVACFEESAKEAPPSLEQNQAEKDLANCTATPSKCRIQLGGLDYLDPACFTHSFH

T3: hPRLR.mmh (soluble monomeric human PRLR) (human)
T3 construct: soluble monomeric construct
T3 chain: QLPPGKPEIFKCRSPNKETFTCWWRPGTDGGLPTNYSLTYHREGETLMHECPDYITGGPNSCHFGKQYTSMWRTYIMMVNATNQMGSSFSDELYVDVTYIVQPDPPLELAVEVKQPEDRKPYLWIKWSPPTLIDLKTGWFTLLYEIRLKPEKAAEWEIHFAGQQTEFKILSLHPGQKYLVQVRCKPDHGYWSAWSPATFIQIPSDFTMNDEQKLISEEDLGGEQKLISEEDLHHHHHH

T4: hPRLR.mFc (soluble dimeric human PRLR) (human)
T4 construct: dimeric construct
T4 chain: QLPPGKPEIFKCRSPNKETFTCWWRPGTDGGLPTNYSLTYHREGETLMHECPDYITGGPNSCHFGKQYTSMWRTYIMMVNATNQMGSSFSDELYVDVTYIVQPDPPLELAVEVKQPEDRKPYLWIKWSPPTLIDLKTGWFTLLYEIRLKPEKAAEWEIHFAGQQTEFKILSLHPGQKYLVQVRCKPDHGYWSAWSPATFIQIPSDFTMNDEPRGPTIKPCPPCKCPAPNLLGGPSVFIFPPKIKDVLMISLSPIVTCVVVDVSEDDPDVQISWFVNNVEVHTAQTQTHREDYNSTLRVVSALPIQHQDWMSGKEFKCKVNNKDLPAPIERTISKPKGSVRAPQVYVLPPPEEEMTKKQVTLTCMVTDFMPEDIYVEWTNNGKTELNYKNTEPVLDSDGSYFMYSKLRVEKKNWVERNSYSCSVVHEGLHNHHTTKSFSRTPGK

T5: mfPRLR.mmh (soluble monomeric macaca fascicularis PRLR) (macaca fascicularis)
T5 construct: soluble monomeric construct; also called macaca fascicularis (mf) PRLR.mmh
T5 chain: T3 chain with I76V, A110T, I125M, I158T, T207I

T6: mouse PRLR on HEK293 cells (mouse, UniProt Q08501 20-608)
T6 construct: whole, on cells; also called mPRLR; HEK293/mPRLR
T6 sequence (looked up): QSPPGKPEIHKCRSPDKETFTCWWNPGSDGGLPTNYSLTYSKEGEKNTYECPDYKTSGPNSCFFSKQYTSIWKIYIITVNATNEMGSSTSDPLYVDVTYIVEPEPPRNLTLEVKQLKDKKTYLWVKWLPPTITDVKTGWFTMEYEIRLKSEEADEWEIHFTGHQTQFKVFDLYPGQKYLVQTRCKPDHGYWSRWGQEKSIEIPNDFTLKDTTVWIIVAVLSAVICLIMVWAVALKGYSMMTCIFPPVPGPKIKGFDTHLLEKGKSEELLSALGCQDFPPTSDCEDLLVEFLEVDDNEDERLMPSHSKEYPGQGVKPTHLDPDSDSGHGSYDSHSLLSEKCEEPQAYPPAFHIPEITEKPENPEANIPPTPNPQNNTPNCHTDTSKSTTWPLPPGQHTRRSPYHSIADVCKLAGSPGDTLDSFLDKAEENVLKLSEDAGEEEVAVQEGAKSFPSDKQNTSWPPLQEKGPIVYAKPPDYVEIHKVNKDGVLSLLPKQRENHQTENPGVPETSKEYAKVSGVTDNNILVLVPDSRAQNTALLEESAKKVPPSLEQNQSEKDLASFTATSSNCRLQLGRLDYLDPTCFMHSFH

B1: H1H6785P (antibody, human IgG1, V domains shown)
VH: EVQLVESGGGLVQPGGSLRLSCAASGFTFSSYEMNWVRQAPGKGLEWISYISSRGGTIYYADSIKGRFTIYRDNARNSLYLQMNSLRAEDTAIYYCARLSGVDIFDIWGQGTMVTVSS
VL: DIQMTQSPSSLSASVGDRVTITCRASQGISNYLAWYQQKPGKVPKLLIYFASTLQSGVPSRFSGGGSGTDFTLTISSLQPEDVATYYCQRYNSAPLTFGGGTKVEIK
notes: human IgG1 Fc (H1H)
B2: H1H6976N (antibody, human IgG1, V domains shown)
VH: EVQLLESGGGFVQPGGSLRLSCAASGFTFSSYAMSWVRQAPGKGLEWVSIISSNGRYTYYADSVKGRFTISRDNSKNTLYLQMNSLRAEDTAVYYCATVTGDWFDPWGQGTLVTVSS
VL: DIQLTQSPSFLSASVGDRVTITCWASQDIDISLAWYQQKPGKAPKLLIYAASTLQSGVPSKFSGSGSGTDFTLTISSLQPEDFSTYYCQQLNSYPITFGQGTRLDIK
notes: also called H2M6976N
B3: H1H6782P (antibody, human IgG1, V domains shown)
VH: EVQLVESGGGLVQPGRSLRLSCAASGFTFDDYAMHWVRQAPGKGLEWVSGIIWNSGHIGYGDSVKGRFTISRDNAKKSLYLQMNSLRAEDTALYYCARDSGRYQSYFDYWGQGTLVTVSS
VL: DIQMTQSPSTLSASVGDRVTITCRASHIISSWLAWYQQKPGKAPKVLIFKASSLESGVPSRFSGSGSGTEFTLTISSLQPDDFATYYCQQYNTYSRTFGQGTKVEIK
notes: human IgG1 Fc (H1H)
B4: H1H6765P (antibody, human IgG1, V domains shown)
VH: EVQLVESGGGVVRPGGSLRLSCVGSGFSFDDHGMNWVRQGPGKGLEWVSGFNWNGGSTNYAESVKGRFTISRDNARNSLFLQMNSLRAEDTALYYCVRGRSGWFNDAFDVWGPGTMVTVSS
VL: EIVLTQSPGTLSLSPGERATLSCRASQTINSNYLAWYRQKPGQTPRLLIYGTSSRATGIPDRFSGSGSGTDFSLTISRLEPEDFAVFYCQQYAGLPTFGPGTKVDIK
notes: human IgG1 Fc (H1H)
B5: H1H6793P (antibody, human IgG1, V domains shown)
VH: EVQLVESGGGLVQPGGSLRLSCAASGFSFSIYAMSWFRQAPGKGLEWVSAINGRGDGTHYADSVKGRFTISRDNSKTTLYLQMSSLRAEDTAVYYCAKPVMSTNGFDIWGQGTMVTVSS
VL: DIQMTQSPSTLSASVGDRVTITCRASQSISSWLAWYQLKPGKAPKLLIYKASNLESGVPSRFSGSGSGTEFTLTISSLQPDDFATYYCQQYNIYWTFGQGTKVEIK
notes: human IgG1 Fc (H1H)

Legend:
[1] = molecular target: T1, human prolactin receptor (PRLR) on cells; test: FACS, T47D cells (native PRLR); also: test concentration or dose not given here
[2] = molecular target: T1, human prolactin receptor (PRLR) on cells; test: FACS, HEK293/hPRLR cells; also: test concentration or dose not given here
[3] = molecular target: T1, human prolactin receptor (PRLR) on cells; test: cell-based or functional assay
[4] = molecular target: T2, monkey (macaca fascicularis) PRLR on …; test: FACS, HEK293/mfPRLR cells; also: test concentration or dose not given here
[5] = molecular target: T3, hPRLR.mmh (soluble monomeric human PRLR); test: SPR, 37C, mAb capture
Protocol: (§1) Measurements were conducted on a T200 Biacore instrument. Kinetic association (kₐ) and dissociation (kd) rate constants were determined by processing and fitting the data to a 1:1 binding model using Scrubber 2.0 curve fitting software. Binding dissociation equilibrium constants (KD) and dissociative half-lives (t_{1/2}) were calculated from the kinetic rate constants as: KD (M)=kd/kₐ; and […].

[6] = molecular target: T4, hPRLR.mFc (soluble dimeric human PRLR); test: SPR, 37C, mAb capture
Protocol: as §1

[7] = molecular target: T5, mfPRLR.mmh (soluble monomeric macaca …); test: SPR, 37C, mAb capture
Protocol: as §1

[8] = molecular target: T6, mouse PRLR on HEK293 cells; test: FACS, HEK293/mPRLR cells; also: test concentration or dose not given here

Row | Binder | FACS Cell Binding (Fold Above Background) [1] | FACS Cell Binding (Fold Above Background) [2] | % Internalization relative to Control I (alexa488 intensity in intracellular vesicles at 37 C, T47D cells) [3] | FACS Cell Binding (Fold Above Background) [4] | T½ [5] | T½ [6] | T½ [7] | FACS Cell Binding (Fold Above Background) [8]
1 | B1 | 40 fold above background | 37 fold above background | 169% | 26 fold above background | 24 min | 99 min | 26 min | 2 fold above background
2 | B2 | 37 fold above background | 8 fold above background | 170% | 29 fold above background | 3.7 min | 82.6 min | 3.7 min | 1 fold above background
3 | B3 | 43 fold above background | 41 fold above background | 179% | 32 fold above background | 16 min | 89 min | 15 min | 4 fold above background
4 | B4 | 40 fold above background | 38 fold above background | 186% | 27 fold above background | 32 min | 112 min | 215 min | 1 fold above background
5 | B5 | 43 fold above background | 2 fold above background | 180% | 32 fold above background | 11 min | 81 min | 11 min | 2 fold above background
